Measurements reported in paper PMC7439463.
Values belong to the substance of their own block, whether it stands above or below them.

What was measured:
[1] = molecular target: tag-free BcsRQ complex (E. coli 1094) (UniProt P37655); assay: SEC-MALS; purified tag-free BcsERQ^FL complex on Superose 6 Increase 10/300 GL, with Cymal-6 detergent
[2] = molecular target: BcsQ (tag-free) (E. coli 1094) (UniProt P37655); assay: SEC-MALS; purified sample on Superdex 200 Increase 10/300 GL in its gel filtration buffer (20 mM HEPES pH 8.0, 120 mM NaCl, 2 mM DTT for BcsRQ), 0.5 ml/min
[3] = molecular target: BcsE^217-523 (purified, tag-free) (E. coli 1094) (UniProt P37657); assay: ITC; apparent constants; Microcal VP-ITC, 20 C; tag-free BcsRQ (180 uM, syringe) titrated into BcsE^217-523 (18 uM, cuvette); 20 mM HEPES pH 8.0, 100 mM NaCl, 2 mM DTT; single-site binding model

stoichiometry N (BcsE:BcsR:BcsQ, printed as 2:2:2) [1]: 1
Substance: BcsE^FL (tag-free) (from UniProt P37657 1-523) (natural protein)

stoichiometry N (BcsR:BcsQ, printed as 2:2) [2]: 1
Substance: BcsR (His tag cleaved, in tag-free BcsRQ) (natural protein)

Kd [3]: 16 nM | stoichiometry N [3]: 0.95
Substance: tag-free BcsRQ complex (from UniProt P37655 1-242)
